Results reported in article PMC6048237.
Values joined by “and” are separate entries in the source; they are usually repeats but may differ in a detail not shown here. Identical values can stand only once.

Target: Trypanosoma evansi mevalonate kinase (TeMVK), N-terminal 6xHis-tagged recombinant (Trypanosoma evansi)
Experiment: SEC; Superdex 200 16/600, 30 mM glycine pH 9.0, 150 mM NaCl; TeMVK expressed in autoinduction medium ZYM5052; sizes estimated from calibration with gel filtration standard

- stoichiometry N: 2 and 4
Substance: Trypanosoma evansi mevalonate kinase (TeMVK), N-terminal 6xHis-tagged recombinant (enzyme)
